T1: HRBP (1-81), amino acids 1 to 81 of the Nogo-B receptor (NgBR) family protein HRBP from Hevea brasiliensis
T1 chain: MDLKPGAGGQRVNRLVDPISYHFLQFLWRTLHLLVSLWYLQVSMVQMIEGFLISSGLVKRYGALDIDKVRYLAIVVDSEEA

B1: HRT1-linker-LDAP1 fusion protein (protein)
chain: GFLALLNVLTYCYELGVKYATIYAFSIDNFRRKPHEVQYVMDLMLEKIEGMIMEESIINAYDICVRFVGNLKLLSEPVKTAADKIMRATANNSKCVLLIAVCYTSTDEIVHAVEESSELNSNEVCNNQELEEANATGSGTVIQIENMESYSGIKLVDLEKNTYINPYPDVLIRTSGETRLSNYLLWQTTNCILYSPHALWPEIGLRHVVWAVINFQRHYSYLEKHKEYLKTGNSADGGGGSGGSGGSGGGSTQGMAEADAKLQNDTVQEDEVTTLKYLEFVQIAAVHAVVIVSSIYDFAKDNSGPLKPGVQTVEGTVKTVMSPVYEKIQDIPLELLKFADRKVDGFVQEVDRHVPVLVKQASSQAFSAAHRAPEVARSIKSELNRVGVVDTATEMTKAAYATLEPTAKDLYIRYEPVAEHYAVSAWRSLNRLPLFSEVAHIVVPTAAYWTDKYNKGVRYMEVKGFGVASYMPLVPTERIAKVFGEREEEIVLEMSPMTTSEVVN
B2: LDAP1-linker-HRT1 fusion protein (protein)
chain: MAEADAKLQNDTVQEDEVTTLKYLEFVQIAAVHAVVIVSSIYDFAKDNSGPLKPGVQTVEGTVKTVMSPVYEKIQDIPLELLKFADRKVDGFVQEVDRHVPVLVKQASSQAFSAAHRAPEVARSIKSELNRVGVVDTATEMTKAAYATLEPTAKDLYIRYEPVAEHYAVSAWRSLNRLPLFSEVAHIVVPTAAYWTDKYNKGVRYMEVKGFGVASYMPLVPTERIAKVFGEREEEIVLEMSPMTTSEVVNTGNSADGGGGSGGSGGSGGGSTQGGFLALLNVLTYCYELGVKYATIYAFSIDNFRRKPHEVQYVMDLMLEKIEGMIMEESIINAYDICVRFVGNLKLLSEPVKTAADKIMRATANNSKCVLLIAVCYTSTDEIVHAVEESSELNSNEVCNNQELEEANATGSGTVIQIENMESYSGIKLVDLEKNTYINPYPDVLIRTSGETRLSNYLLWQTTNCILYSPHALWPEIGLRHVVWAVINFQRHYSYLEKHKEYLK

Target: T1, HRBP (1-81), amino acids 1 to 81 of the …

| Protein | Enzymatic activity (prenyl chain elongation, radioactivity of [4-14C]IPP incorporated, dpm) [dpm] |
| --- | --- |
| B1 | 900 |
| B2 | 837 |

Reference: patent US20250263754
